Here are results for 41 sequences from the nanobody polyreactivity screen of Harvey et al. (2022).

A short description of this data set: yeast display, Sf9 membrane polyspecificity reagent, FACS + sequencing; frameworks hold sequencing errors. In short, it runs like this: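 Genes from sorted yeast were amplified by colony PCR, read by MiSeq 2 × 250 sequencing and filtered on CDR length. These cells carried a synthetic nanobody library in Saccharomyces cerevisiae BJ5465 and were sorted by FACS into low and high (top ~1%) gates on anti-HA and streptavidin fluorescence. Polyreactivity is labelled according to the gate of origin.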
For “QVQLVESGGGLVQAGGSLRLSCAASGRIFGFNALGWYRQAPGKEREFVAAMSGNGGSTYYADSVKGRFTISRDTAKNTVYLPMLSLNPEDTADYYSAASVHATYFSGARHWVKLYDWRQGTQVTVSS”, the “polyreactivity (PSR sort gate)” value is recorded as “high polyreactivity”.
As for “QVQLVESGGGLVQAGGSLRLSCAASGRIFGFNAMGWYRQAPGKERELVAGITDSSGRTNYADSVKGRFTISRDNAKNTVYLQMNSLKPEDTAVYYCAKASAYGLANDYDYWGQGTQVTVSS”, the entry is “low polyreactivity”; as for “QVQLVESGGGLVQAGGSLRLSCAASGRIFGFNTMGWYRQAPGKERELVAAISRNGGSTYYADSVKGRFTISRDNAKNTVYLEMNSLKPEDTAVYYCAKRWYPYSYDYWGQGTQVTVSS”, “high polyreactivity”; as for “QVQLVESGGGLVQAGGSLRLSCAASGRIFGFYAMGWYRQAPGKERELVAAITNGGSTYYADSVKGRFTISRDNAKNTVDLQMNSLKPEDTAVYYCNKGRQAHLHITMDYWGQGTQVTLSS”, “low polyreactivity”.
With “QVQLVESGGGLVQAGGSLRLSCAASGRIFGFYTMGWYRQAPGKERELVAGISRGGSTYYADSVKGRFTISRDNAKNTGYVQMNSLNPEDTAVYDCAADLGWGYEYWGQGTQVTVSS” the entry was “low polyreactivity”.
As for “QVQLVESGGGLVQAGGSLRLSCAASGRIFGGNAMGWYRQAPGKERELVAAISQRGGSTSYADSVKGRFTISRDNAKNTVYLQMNSLKPEDTAVYYCAATWGYLRGSTKFYYWGQGTQVTVSS”, the entry is “high polyreactivity”.
For the sequence “QVQLVESGGGLVQAGGSLRLSCAASGRIFGGNAMGWYRQAPGKERELVAAITWGGSTNYADSVKGRFTISRDNAKNTVYLQMNRLKPEDTAVYYCNADPVRDTYWHPETQQWYGYWGQGTQVTVSS”, the “polyreactivity (PSR sort gate)” value is listed as “low polyreactivity”.
With “QVQLVESGGGLVQAGGSLRLSCAASGRIFGGYAMGWYRQAPGKERELVAVITDGGSTNYADSVKGRFTISRDNAKNTVYLQMNSLKPEDTAVYYCAADSDGDEPPYDYWGQGTQVTVSS” the entry was “low polyreactivity”; with “QVQLVESGGGLVQAGGSLRLSCAASGRIFGGYARGWYRQAPGKERELVAVINGGTSTKYADSVKGRFTISRDNAKNTVYLQMNSLKPEDTAVYYCAKTRHDSLQNRNRYDYWGQGTQVTVSS”, “low polyreactivity”.
For “QVQLVESGGGLVQAGGSLRLSCAASGRIFGGYTMGWSRPAPGKERELVAAITGSGGRTYYADSVKGRFTISRDNAKNTVYLQMNSLQPEDTAVYYCNTVYRYLYSWGQGTQVTVSS”, the “polyreactivity (PSR sort gate)” value is “high polyreactivity”.
Regarding “QVQLVESGGGLVQAGGSLRLSCAASGRIFGGYTMGWYRQAPGKERELVASINSGGSTAYADSVKGRFTISRDNAKNTVYLQMNSLKPEDTAVYYCAKRYAQTYSVSRYYYWGQGTQVTVSS”, the “polyreactivity (PSR sort gate)” value was “high polyreactivity”.
With “QVQLVESGGGLVQAGGSLRLSCAASGRIFGHNAMGWYRQAPGKERELVARISSTGSTKYADSVKGRFTISRDNAKNTVYLQMNSLKPEDTAVYYCAAYIIRWKGSSYYWGQGTQVTVSS” the entry was “high polyreactivity”; with “QVQLVESGGGLVQAGGSLRLSCAASGRIFGHNAMGWYRQAPGKERELVATISSGVRTNYADSVKGRFTISRDNAKNTVYLQMNSLKPEDTAVYYCATKTYQFGYSSYYYWGQGTQVTVSS”, “high polyreactivity”.
As for “QVQLVESGGGLVQAGGSLRLSCAASGRIFGHNSMGWSRQPPWKEMELVATISSGVRTNYADSVKGRFTISRDNAKNTVYLQMNSLKPEDTAVYYCATKTYQFGYSSYYYWGQGTQVTVSS”, the entry is “high polyreactivity”.
With “QVQLVESGGGLVQAGGSLRLSCAASGRIFGHYAIGWYRKAPGKERELVAAISTSGGSTYYADSVKGRFTISRDNAKNTVYLQMNSLKPEDTAVYYCAASVVYYPYDYWGQGTQVTVSS” the entry was “high polyreactivity”; with “QVQLVESGGGLVQAGGSLRLSCAASGRIFGINALGWYRQAPGKERELVAAISSADSTYADSVKGRFTISRDNAKNTVFLQMYSLNPEDTAVYNCRNDYWGQGTQVTVSS”, “low polyreactivity”; with “QVQLVESGGGLVQAGGSLRLSCAASGRIFGINAMGWYRQAPGKERELVAAINRSGDTTNYADSVKGRFTISRDNAKNTVYLQMNSLKPEDTAVYYCAADGYRQVYYRYYYWGQGTQVTVSS”, “high polyreactivity”.
On to “QVQLVESGGGLVQAGGSLRLSCAASGRIFGINAMGWYRQAPGKERELVAAITWSGDGTYDADSVKGRFTISRDNAKNTVYLQMNSLKPEDTAVYYCAKQLPEISQMDYWGQGTQVTVSS”, for which the “polyreactivity (PSR sort gate)” value is “low polyreactivity”.
In the case of “QVQLVESGGGLVQAGGSLRLSCAASGRIFGKYAMGWYRQAPGKERELVAAISRSGASTYYADSVKGRFTISRDNAKNTVYLQMNSLKPEDTAVYYCAAVPPYNYRVRVYYWGQGTQVTVSS”, the “polyreactivity (PSR sort gate)” value was “high polyreactivity”.
As for “QVQLVESGGGLVQAGGSLRLSCAASGRIFGKYAMGWYRQAPGKERELVAAISSSGGSTYYADSVKGRFTISRDNAKNTVYLQMNSLKPEDTAVYYCAADAAVSRVYPYDYWGQGTQVTVSS”, the “polyreactivity (PSR sort gate)” value is “high polyreactivity”.
In the case of “QVQLVESGGGLVQAGGSLRLSCAASGRIFGKYAMGWYRQAPGKERELVAAISSSGRTNYADSVKGRFTISRDNAKNTVYLQMNSLKPEDTAVYYCAVRVLIHTNTRRLDYWGQGTQVTVSS”, the “polyreactivity (PSR sort gate)” value is reported as “high polyreactivity”.
As for “QVQLVESGGGLVQAGGSLRLSCAASGRIFGKYAMGWYRQAPGKERELVAAISVRGGRTFYADSVKGRFTISRDNAKNTVYLQMNSLKPEVTAVYYCAARGADKGSYADVDYWGQGTQVTVSS”, the entry is “low polyreactivity”.
With “QVQLVESGGGLVQAGGSLRLSCAASGRIFGLNAMGWYRQAPGKERELVAAITGSVGSTYYADSVKGRFTISRDNAKNTVYLQMNSLKPEDTAVYYCNAEYDSRRSSYYRHFNYWGQGTQVTVSS” the entry was “low polyreactivity”.
As for “QVQLVESGGGLVQAGGSLRLSCAASGRIFGNTMGWYRQAPGKERELVAAITRSGVSTYYADSVKGRFTISRDNAKNTVYLQMNSLKPEDTAVYYCAKVYSRRSVLSRYGSWGQGTQVTVSS”, the entry is “high polyreactivity”; as for “QVQLVESGGGLVQAGGSLRLSCAASGRIFGNYAMGWYRQAPGKERELVAAISGGGSTYYADSVKGRFTISRDNAKNTVYLQMKSLKPEDTAVYYCAARFLWSVFGRKGGYWGQGTQVTVSS”, “low polyreactivity”; as for “QVQLVESGGGLVQAGGSLRLSCAASGRIFGNYAMGWYRQAPGKERELVAAISGGGSTYYADSVKGRFTISRDNAKNTVYLQMNSLKPEDTAVYYCAARFLWSVFGHKGGYWGQGTQVTVSS”, “low polyreactivity”.
For “QVQLVESGGGLVQAGGSLRLSCAASGRIFGNYAMGWYRQAPGKERELVAAITSGARTYYADSVKGRFTLSRDNAKNTVYLQMNSLKPEDTAVYYCAAYHKSYSNRYDYWGQGTHVTVSS”, the “polyreactivity (PSR sort gate)” value is “high polyreactivity”.
With “QVQLVESGGGLVQAGGSLRLSCAASGRIFGPNAMGWYRQAPGKETELVAVISTGGSTNYADSVKGRFTISRDNAKNTVYLQMNSLKPEDTAVYYCAAAYQYERGGLYNRFYYWGQGTQVTVSS” the entry was “low polyreactivity”; with “QVQLVESGGGLVQAGGSLRLSCAASGRIFGPYAMGWYRQAPGKERELVAAISWSGGSTYYADSVKGRFTISRDNAKNTVFLQMNSLKPEDTAVYYCAARERRVYGDRFYKLDYWGQGTQVTVSS”, “high polyreactivity”; with “QVQLVESGGGLVQAGGSLRLSCAASGRIFGPYAMGWYRQAPGKERELVASISYSGGSTYYADSVKGRFTISRDNAKNTVYLQMNSLKPEDTAVYYCARRAVYSKRRYDYWGQGTQVTVSS”, “low polyreactivity”.
With “QVQLVESGGGLVQAGGSLRLSCAASGRIFGPYTMGWYRPAPGKERELVARISRRGGSTYYADSVKGRFTISRDNAKNTVYLQMNSLKPEDTAVYYCAAWFTSTRPYDYWGQGTQVTVSS” the entry was “high polyreactivity”; with “QVQLVESGGGLVQAGGSLRLSCAASGRIFGPYTMGWYRQAPGKERELVAAISWSGGSTYYADSVKGRFTISRDNAKNTVYLQMNSLKPEDTAVFYCNADHPFPQYEGGSWGQGTQVTVSS”, “low polyreactivity”; with “QVQLVESGGGLVQAGGSLRLSCAASGRIFGQYAMGWYRQAPGKERELVAAISWRGGTTYYADSVKGRITISRDKAKNTVYLQMNSLKPVDTAVYYCNADVWVYPYDYWGQGTQVTVSS”, “low polyreactivity”.
As for “QVQLVESGGGLVQAGGSLRLSCAASGRIFGQYAMGWYRQAPGKERELVASISRRGGSKNYADSVKGRFTISRDNAKNTVYLQMNSRKPEDTAVYYCATGRTWILQKLDYWGQGTQVPVSS”, the entry is “high polyreactivity”.
“QVQLVESGGGLVQAGGSLRLSCAASGRIFGRNAMGWYRQAPGKERELVAAISSGSGSTYYADSVKGRFTISRDNAKNTVYLQMISLKPEDTAVYYCAATVSTYLAWRGYWGQGTQVTVSS”: the “polyreactivity (PSR sort gate)” value is on record as “high polyreactivity”.
As to “QVQLVESGGGLVQAGGSLRLSCAASGRIFGRNARGWYRQAPGKERELVAAISSSGGTYYADSVKGRFTISRYNAKNTVYLQMNSLKPEDTAVYYCNARVRTQQRWVDYWGLGTQVTVSS”, the “polyreactivity (PSR sort gate)” value is “high polyreactivity”.
On to “QVQLVESGGGLVQAGGSLRLSCAASGRIFGRNTMGWYRQAPGKERELVASITFGGVSTYYADSVKGRFTISRDNAKNTVYLQMNSLKPEDTAVYYCAAVLINYEGYDSWGQGTQVTVSS”, for which the “polyreactivity (PSR sort gate)” value is given as “low polyreactivity”.
Consider “QVQLVESGGGLVQAGGSLRLSCAASGRIFGRNTMGWYRQAPGKERELVAVISWRGGSTYYADSVKGRFTISRDNAKNTVYLQMNSLKPEDTAVYDCNPKYPFSRRGDYWGQGTQVTVSS”, for which the “polyreactivity (PSR sort gate)” value was “high polyreactivity”.
“QVQLVESGGGLVQAGGSLRLSCAASGRIFGRYAMGRYRQAPGKERELVAAISSTVGSTYYADSVKGRFTISRDNAKNTVDLQMNSLKPEDTAVYYCATVWYGSYYWATEYWGQGTQVTVSS”: the “polyreactivity (PSR sort gate)” value was “high polyreactivity”.
With “QVQLVESGGGLVQAGGSLRLSCAASGRIFGRYAMGWYRQAPGKERELVAAITRSGGNTYYADSVKGRFTISRDNAKNTVYLQMNSLKPEDTAVYYCAVRQLDRRSPKYNYWGQGTQVTVSS” the entry was “high polyreactivity”; with “QVQLVESGGGLVQAGGSLRLSCAASGRIFGRYAMGWYRQAPGKERELVATITYTGGSTYYADSVKGRFTISRDNAKNTVYLQMNSLKPEDTAVYSCNAVKPVSRTYDSSYYWGPGTQVTVSS”, “high polyreactivity”.
